Reference: publication PMC3699631, “Posttranslational Modifications of the Histone 3 Tail and Their Impact on the Activity of Histone Lysine Demethylases In Vitro” (PLoS ONE, 2013)
Entries after “also recorded” stand apart in the source; their conditions may differ.

Target: T1, human FL-KDM4C (Homo sapiens, UniProt Q9H3R0)
T1 construct: along with the full length FL- KDM4C and FL-KDM4A using various synthetic histone tail peptides as substrates; His6 (N); FLAG (N); made in house; host or cells: High Five (Trichoplusia ni) insect cells, baculovirus
T1 sequence (Q9H3R0 1-1056): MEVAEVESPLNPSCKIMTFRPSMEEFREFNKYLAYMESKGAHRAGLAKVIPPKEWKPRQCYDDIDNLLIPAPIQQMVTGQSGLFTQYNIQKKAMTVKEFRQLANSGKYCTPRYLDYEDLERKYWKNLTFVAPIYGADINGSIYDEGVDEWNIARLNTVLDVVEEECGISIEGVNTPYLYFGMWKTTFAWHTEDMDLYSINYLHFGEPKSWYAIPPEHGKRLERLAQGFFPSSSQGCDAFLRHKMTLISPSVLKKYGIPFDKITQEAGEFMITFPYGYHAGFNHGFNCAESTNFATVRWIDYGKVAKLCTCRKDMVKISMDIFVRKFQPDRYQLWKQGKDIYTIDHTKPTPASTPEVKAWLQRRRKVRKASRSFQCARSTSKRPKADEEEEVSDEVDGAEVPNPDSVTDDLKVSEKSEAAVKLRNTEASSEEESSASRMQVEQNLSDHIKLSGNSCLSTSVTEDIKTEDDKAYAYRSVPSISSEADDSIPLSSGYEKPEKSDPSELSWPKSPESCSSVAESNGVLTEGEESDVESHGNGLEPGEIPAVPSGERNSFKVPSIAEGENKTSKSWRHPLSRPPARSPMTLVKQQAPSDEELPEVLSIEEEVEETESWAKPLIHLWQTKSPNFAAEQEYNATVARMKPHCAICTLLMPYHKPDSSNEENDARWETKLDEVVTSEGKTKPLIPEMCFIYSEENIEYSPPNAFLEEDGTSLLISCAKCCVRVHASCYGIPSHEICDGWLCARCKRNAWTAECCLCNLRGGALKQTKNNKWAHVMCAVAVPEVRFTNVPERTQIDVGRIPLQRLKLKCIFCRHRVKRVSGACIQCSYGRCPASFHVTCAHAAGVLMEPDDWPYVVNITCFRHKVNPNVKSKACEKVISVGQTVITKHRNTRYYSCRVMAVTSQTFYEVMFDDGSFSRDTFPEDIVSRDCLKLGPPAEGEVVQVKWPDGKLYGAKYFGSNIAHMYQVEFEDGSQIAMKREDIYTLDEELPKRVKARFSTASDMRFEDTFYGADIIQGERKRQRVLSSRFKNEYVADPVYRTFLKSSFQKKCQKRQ
Assay: FDH-assay enzyme kinetics of H3 peptide demethylation, full length KDM4C
Assay type: biochemical
Set-up: key to K m / k cat / k cat /K m: 0 means no demethylation could be detected
Settings: for demethylation / catalytic activity (in words) / K m / k cat / k cat /K m: FDH-assay; for K m: 50 mM HEPES (pH 7.5), 50 mM NaCl, 50 µM FeSO4, 500 µM α-KG, 500 µM ascorbate, 2 mM NAD, substrate 10–1000 µM, NADH fluorescence 15–30 minutes; for K m / k cat: triplicate; for k cat: pH 7.5, NADH fluorescence; for k cat /K m: pH 7.5, triplicate
Experimental: The enzyme kinetics were measured using a Formaldehyde DeHydrogenase Assay (FDH-Assay) and the demethylation of substrates was confirmed when possible by MALDI-TOF-MS, see File S1 for details. The test solution contained 50 mM HEPES (pH 7.5), 50 mM NaCl, 50 µM FeSO4, 500 µM α-KG, 500 µM ascorbate, 2 mM NAD, approximately 0.05 unit of FDH and e.g. 4.88 µM KDM4C (enzyme concentration varied between batches). The reference solution was comprised of the same except substrate. The assay was initiated by adding various concentrations of H3 peptide substrates e.g. H3(1–24)K9me3 (10–1000 µM) and the increase in NADH fluorescence was measured over 15–30 minutes in 30 second intervals. Data analysis and kinetic values were obtained using programs Excel and GraphPad Prism® 5.0. For details, see File S1.
The standard deviations for k cat/K m were calculated using the statistic law of propagation of errors. Standard errors for Michaelis-Menten Kinetics were automatically given in GraphPad Prism®, with a 95% confidence interval. All enzyme kinetic curves were done in triplicate unless otherwise stated.
Test for activity of enzyme using the fluorescence FDH assay, determination of Vmax and Km of enzymes with substrate, expression and purification of cc-KDM4A and cc-KDM4C software and parameters for the FDH coupled assay, see Lohse et al.^21
Recombinant baculoviridae encoding the full Open Reading Frame (ORF) of FL-KDM4A and FL-KDM4C were generously donated from the Biotech Research and Innovation Centre (BRIC), University of Copenhagen, Denmark. Recombinant protein was expressed by adding High Titer Stocks to High Five (Trichopulsia ni) insect cells in suspension culture. The cell cultures were harvested by centrifugation after ~ 60 hours and the cells were resuspended in hypotonic buffer (25 mM Hepes-KOH, pH 7.7, 1.5 mM MgCl, 5 mM KCl) supplemented with one protease inhibitor cocktail tablet per 500 ml expression (Roche, EDTA-free). The resuspended cells were frozen at -20 °C.
Both proteins were purified by IMAC using Talon FF (Clontech) cobalt resin according to the following protocol; resuspended cells were thawed on ice, 100 ml hypotonic buffer was added per 500 ml expression volume and the cells were incubated with stirring for 30 min. at 4 °C, followed by a brief (30 s per 500 ml culture volume) sonication. β-mercaptoethanol (BME, 2 mM final concentration), Triton X-100 (0.2 % final concentration) and NaCl (300 mM final concentration) were added and the cell suspension was stirred for another 30 min at 4 °C. The lysate was cleared by centrifugation at 50.000 g for 60 minutes. The cleared lysates were adjusted to 5 mM imidazole and incubated with Talon resin (1 ml /500 ml expression) for 60 minutes. The resin was allowed to sediment, the lysate removed and the resin was transferred to PD-10 gravity flow columns (GE Healthcare). The resin was washed with 10 column volumes of binding buffer (50 mM Hepes-KOH, pH 7.7, 300 mM NaCl, 5 mM imidazole, 10% glycerol, 0.05 % Triton X-100, 2 mM BME) and eluted with 2 x 2.5 ml elution buffer (50 mM Hepes-KOH, pH 7.7, 300 mM NaCl, 100 mM imidazole, 10 % glycerol, 0.05 % Triton X-100, 2 mM BME). Each eluted fraction has its buffer changed to 50 mM Hepes pH 7.5, 300 mM NaCl, 10 % glycerol using a PD-10 desalting column. The protein was concentrated to 6-7 mg/ml (FL-KDM4A) or 10-12 mg/ml (FL-KDM4C). Despite the buffer change it is likely that small amounts of Triton X-100 remained in the protein samples. Triton X-100 has a significant absorbance at 280 nm, so the protein concentration was determined by Bradford assay using a BSA standard curve. The protein purity was approximately 70 % as judged from SDS-PAGE. The concentrated protein was aliquoted and stored at -80 °C until assays were performed.
The standard deviations for kcat/ Km were calculated using the statistic law of propagation of errors. […]

[1] = SD by propagation of errors, unit: (min^−1 * µM^−1) * 10^3

Substance	demethylation / catalytic activity (in words)	K m	k cat	k cat /K m [1]	fold increase in k cat/K m (compared to H3(1–24)K9me3) [fold]	k cat /K m (figures) [min^-1 * μM^-1 * 10^3]	demethylation / catalytic activity (in words) (listed as H3K9me3)
H3(1–24)K4me3K9me3: bis-tri-methylated substrate, trimethylated K4 in combination with H3K9me3	a small difference in activity between H3(1–24)K9me3 and H3(1–24)K4me3-K9me3	42±3	1.1±0.2	24±3	2	24 ± 3	–
H3(1–24)K9me2: truncated histone tail, 24 first amino acids from the N-terminus of H3, dimethylated lysine 9	–	79±10	–	1.3±0.2	–	2 ± 0.4	–
H3(1–24)K9me3: truncated histone tail, 24 first amino acids from the N-terminus of H3, trimethylated lysine 9; control peptide	–	57±5	0.7±0.1	12±2	–	12 ± 2	preference for the H3K9me3 over the H3K9me2; also recorded: an order of magnitude higher activity towards trimethylated H3K9me3 compared to dimethylated H3K9me2 substrates
H3(1–24)K9me3T11(ph): H3(1–24)K9me3 with phosphorylation of threonine 11	no detectable turnover	0	0	0	–	–	–
